Results on four molecules are retold here after article PMC11347159, “MUT-7 exoribonuclease activity and localization are mediated by an ancient domain” (Nucleic Acids Research, 2023).

Data set [1] concerns the target T1, MUT-7^FL/MUT-8^FL complex (Caenorhabditis elegans, UniProt P34607 1-910; Q19672 1-578).
T1 construct: C. elegans exonuclease MUT-7, residues 1-910 (full length); C. elegans MUT-8 (RDE-2), residues 1-578 (full length); Complex formed beforehand by co-expression; also called full-length MUT-7/MUT-8; MUT-7/MUT-8; source: E. coli BL21(DE3) derivative, co-expressed, purified through several chromatographic steps
T1 sequence (looked up) 1: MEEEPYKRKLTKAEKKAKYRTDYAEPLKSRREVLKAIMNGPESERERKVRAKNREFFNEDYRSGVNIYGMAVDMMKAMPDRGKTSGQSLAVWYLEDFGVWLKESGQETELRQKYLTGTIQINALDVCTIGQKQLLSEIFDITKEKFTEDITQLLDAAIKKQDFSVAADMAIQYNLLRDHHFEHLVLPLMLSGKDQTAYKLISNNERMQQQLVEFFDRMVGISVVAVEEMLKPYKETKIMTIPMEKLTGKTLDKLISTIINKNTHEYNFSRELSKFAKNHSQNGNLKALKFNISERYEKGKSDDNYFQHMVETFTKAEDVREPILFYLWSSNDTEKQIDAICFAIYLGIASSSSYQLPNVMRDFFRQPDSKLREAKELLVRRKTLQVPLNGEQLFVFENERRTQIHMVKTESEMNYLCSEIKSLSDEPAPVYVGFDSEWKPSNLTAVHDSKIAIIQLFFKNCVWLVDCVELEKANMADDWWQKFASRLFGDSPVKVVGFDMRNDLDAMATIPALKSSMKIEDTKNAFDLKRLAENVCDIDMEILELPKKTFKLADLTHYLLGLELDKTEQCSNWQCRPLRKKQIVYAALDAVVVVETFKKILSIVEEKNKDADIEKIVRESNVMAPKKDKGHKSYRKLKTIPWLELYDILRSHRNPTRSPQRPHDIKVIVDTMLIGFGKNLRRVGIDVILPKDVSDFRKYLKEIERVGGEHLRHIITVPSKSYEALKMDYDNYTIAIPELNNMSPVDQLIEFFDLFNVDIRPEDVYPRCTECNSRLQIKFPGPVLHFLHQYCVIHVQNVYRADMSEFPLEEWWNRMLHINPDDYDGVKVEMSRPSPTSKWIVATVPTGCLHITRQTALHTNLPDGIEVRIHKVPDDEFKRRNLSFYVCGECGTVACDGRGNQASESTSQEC
T1 sequence (looked up) 2: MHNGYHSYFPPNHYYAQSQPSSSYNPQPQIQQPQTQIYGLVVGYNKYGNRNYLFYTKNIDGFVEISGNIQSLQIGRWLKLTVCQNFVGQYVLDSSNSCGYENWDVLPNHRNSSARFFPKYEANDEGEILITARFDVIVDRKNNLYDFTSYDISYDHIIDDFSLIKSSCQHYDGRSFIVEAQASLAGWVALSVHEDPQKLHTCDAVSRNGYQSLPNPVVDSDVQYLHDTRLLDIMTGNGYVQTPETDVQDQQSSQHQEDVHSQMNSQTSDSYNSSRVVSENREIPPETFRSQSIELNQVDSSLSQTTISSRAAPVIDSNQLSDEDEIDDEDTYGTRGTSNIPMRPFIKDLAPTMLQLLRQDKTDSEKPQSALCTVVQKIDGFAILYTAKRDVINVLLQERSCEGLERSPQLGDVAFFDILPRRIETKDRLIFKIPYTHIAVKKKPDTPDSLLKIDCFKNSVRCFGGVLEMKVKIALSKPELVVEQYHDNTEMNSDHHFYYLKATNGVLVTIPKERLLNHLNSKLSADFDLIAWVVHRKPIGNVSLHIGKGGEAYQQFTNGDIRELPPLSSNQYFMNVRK
Put plainly: pull-down; purified proteins (5 μM) pre-incubated 30 min at 4°C in 20 mM HEPES/NaOH pH 7.5, 150 mM NaCl, 10% glycerol, 0.05% IGEPAL, 2 mM DTT; GST-tagged MUT-16 constructs held on glutathione resin; SDS-PAGE, Coomassie. The note with it: both partners purified.

For data set [2], the target named is T2, MUT-8^NTD (1–235), purified (Caenorhabditis elegans, UniProt Q19672 1-235).
T2 construct: C. elegans MUT-8 N-terminal domain, residues 1-235
T2 sequence (looked up): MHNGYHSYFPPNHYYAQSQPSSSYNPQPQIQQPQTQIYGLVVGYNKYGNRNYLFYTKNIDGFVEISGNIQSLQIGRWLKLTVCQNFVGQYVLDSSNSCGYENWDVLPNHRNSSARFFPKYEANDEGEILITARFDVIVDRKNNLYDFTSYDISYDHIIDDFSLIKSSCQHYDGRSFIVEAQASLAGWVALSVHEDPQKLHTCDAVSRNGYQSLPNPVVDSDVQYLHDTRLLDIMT
The experiment in a line: ITC; isothermal titration calorimetry of MUT-8^NTD and MUT-16^584–724. The following applies: both partners purified.

Data set [3] concerns the target T3, EXD3 FL(D399A) (Homo sapiens, UniProt Q8N9H8 1-876, D399A).
T3 sequence: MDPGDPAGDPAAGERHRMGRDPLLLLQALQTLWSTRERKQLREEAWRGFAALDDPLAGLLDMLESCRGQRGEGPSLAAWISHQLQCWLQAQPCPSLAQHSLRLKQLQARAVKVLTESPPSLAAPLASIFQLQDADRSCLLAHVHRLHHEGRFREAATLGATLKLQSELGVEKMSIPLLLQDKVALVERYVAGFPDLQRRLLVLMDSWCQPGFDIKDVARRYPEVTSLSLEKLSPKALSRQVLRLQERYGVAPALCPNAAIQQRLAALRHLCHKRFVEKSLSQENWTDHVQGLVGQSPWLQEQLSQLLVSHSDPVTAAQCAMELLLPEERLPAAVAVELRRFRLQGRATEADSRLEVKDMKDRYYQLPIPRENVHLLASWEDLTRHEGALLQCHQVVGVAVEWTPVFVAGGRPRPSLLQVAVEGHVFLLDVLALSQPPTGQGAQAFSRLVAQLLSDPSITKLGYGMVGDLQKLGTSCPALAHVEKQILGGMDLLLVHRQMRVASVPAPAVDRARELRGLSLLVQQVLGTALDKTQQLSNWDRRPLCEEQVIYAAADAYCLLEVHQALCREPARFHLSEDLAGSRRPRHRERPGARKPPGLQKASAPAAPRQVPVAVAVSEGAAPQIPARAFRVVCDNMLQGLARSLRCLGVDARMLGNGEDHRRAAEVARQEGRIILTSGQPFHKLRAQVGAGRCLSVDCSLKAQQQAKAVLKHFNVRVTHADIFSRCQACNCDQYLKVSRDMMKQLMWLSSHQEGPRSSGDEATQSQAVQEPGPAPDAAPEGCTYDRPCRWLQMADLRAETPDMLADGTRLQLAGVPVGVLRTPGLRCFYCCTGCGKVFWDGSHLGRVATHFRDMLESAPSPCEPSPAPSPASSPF
Put plainly: fluorescence polarization; 250 mM NaCl; Hill h 1.029; FP, 50 nM RNA, 30 min, room temperature; C. elegans proteins: 20 mM HEPES/NaOH pH 7.5, 150 mM NaCl, 10% glycerol, 5 mM EDTA; human proteins: 20 mM HEPES/NaOH pH 7.5, 250 mM NaCl. The note with it: protein: recombinant; label: 5'-FAM; single strand. Background: Fluorescence polarisation rises when a labelled molecule tumbles more slowly, as on binding a larger partner.

Data set [4] addresses T4, EXD3 NTD-EXO(D399A) (Homo sapiens, UniProt Q8N9H8 1-582, D399A).
T4 sequence: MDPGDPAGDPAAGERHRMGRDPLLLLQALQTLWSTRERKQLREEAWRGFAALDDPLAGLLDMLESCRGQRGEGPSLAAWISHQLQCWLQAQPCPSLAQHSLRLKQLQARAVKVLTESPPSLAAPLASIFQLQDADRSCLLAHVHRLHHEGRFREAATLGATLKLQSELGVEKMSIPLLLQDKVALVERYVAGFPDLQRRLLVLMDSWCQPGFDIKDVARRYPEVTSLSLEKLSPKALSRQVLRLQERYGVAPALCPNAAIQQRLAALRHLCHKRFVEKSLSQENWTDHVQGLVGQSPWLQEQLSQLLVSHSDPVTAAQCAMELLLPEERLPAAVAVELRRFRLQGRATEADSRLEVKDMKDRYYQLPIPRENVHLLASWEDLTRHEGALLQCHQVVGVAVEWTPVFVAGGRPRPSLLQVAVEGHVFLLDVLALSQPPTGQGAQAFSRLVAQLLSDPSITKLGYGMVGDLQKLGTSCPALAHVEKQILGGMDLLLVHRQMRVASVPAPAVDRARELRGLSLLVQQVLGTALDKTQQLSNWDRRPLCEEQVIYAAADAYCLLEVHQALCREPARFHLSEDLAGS
Put plainly: fluorescence polarization; 250 mM NaCl; Hill h 1.1; FP, 50 nM RNA, 30 min, room temperature; C. elegans proteins: 20 mM HEPES/NaOH pH 7.5, 150 mM NaCl, 10% glycerol, 5 mM EDTA; human proteins: 20 mM HEPES/NaOH pH 7.5, 250 mM NaCl. The note with it: protein: recombinant; label: 5'-FAM; single strand.

For data set [5], the target named is T5, MUT-7 FL (Caenorhabditis elegans, UniProt P34607 1-910).
T5 sequence: T1 sequence (looked up) 1
The experiment in a line: fluorescence polarization; 5 mM EDTA, 150 mM NaCl; Hill h 1.195; FP, 50 nM RNA, 30 min, room temperature; C. elegans proteins: 20 mM HEPES/NaOH pH 7.5, 150 mM NaCl, 10% glycerol, 5 mM EDTA; human proteins: 20 mM HEPES/NaOH pH 7.5, 250 mM NaCl. The note with it: protein: recombinant; tags: His10-MBP-3C (N), 3C cleavage in purification; label: 5'-FAM; single strand.

Data set [6] has as its target T6, MUT-7 NTD-EXO (Caenorhabditis elegans, UniProt P34607 1-625).
T6 sequence: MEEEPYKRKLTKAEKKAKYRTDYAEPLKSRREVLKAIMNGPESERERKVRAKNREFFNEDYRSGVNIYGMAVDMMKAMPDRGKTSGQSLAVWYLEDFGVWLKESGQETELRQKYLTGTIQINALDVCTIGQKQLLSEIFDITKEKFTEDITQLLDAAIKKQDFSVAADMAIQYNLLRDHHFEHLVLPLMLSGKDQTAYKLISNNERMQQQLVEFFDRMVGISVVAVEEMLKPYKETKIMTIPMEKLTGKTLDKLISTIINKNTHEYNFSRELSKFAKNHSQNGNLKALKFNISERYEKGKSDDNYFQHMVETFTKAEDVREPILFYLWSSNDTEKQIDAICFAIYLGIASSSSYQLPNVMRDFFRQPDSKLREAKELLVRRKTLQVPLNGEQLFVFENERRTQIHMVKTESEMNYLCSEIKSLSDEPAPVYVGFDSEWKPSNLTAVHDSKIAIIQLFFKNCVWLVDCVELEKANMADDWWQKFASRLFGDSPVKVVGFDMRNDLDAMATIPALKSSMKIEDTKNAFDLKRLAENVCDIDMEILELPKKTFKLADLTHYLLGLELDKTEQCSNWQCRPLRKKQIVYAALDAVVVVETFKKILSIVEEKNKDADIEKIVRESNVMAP
The experiment in a line: fluorescence polarization; 5 mM EDTA, 150 mM NaCl; Hill h 1.491; FP, 50 nM RNA, 30 min, room temperature; C. elegans proteins: 20 mM HEPES/NaOH pH 7.5, 150 mM NaCl, 10% glycerol, 5 mM EDTA; human proteins: 20 mM HEPES/NaOH pH 7.5, 250 mM NaCl. The note with it: protein: recombinant; label: 5'-FAM; single strand.

B1: GST-tagged MUT-16^1–724 (domain or fragment, Caenorhabditis elegans, UniProt O62011 1-724, looked up)
chain: MSESDDDYPELDISDQYIDPLGIVVGPPPASYTETDREETPMQNRTEDDTNSYGNSSGEHDYDSYLDSGDDDFDVDAYYANDNMDEPPPETIPDNLIQNVIGRNDNADYDFSDASNPEIMKRDLQLFLSSSLLSNPLKFRSGYSSDELDDCLKSCMGYSLQVTAVLLLPPEIISQLPNDSKTEHAHALVRGGWLQSKEGAFFPVISDSERETVVSLMNGSEEQHKRQERKKKEADTFESEEKEIRTLLTFNMIAELLMAVRNEYSIRSVKYQILSTAYTNMVTGAAHANIFRKYKDILQLDPEKLWNNDWFKEYTNRGTLKKFLTTARFSEIVVSQANGKTVELYFRADDEGNRPVVLFTDEHIADVRNKWKTGNQRNQNYGSQGNYRAGGQRSDDRRGPQQRRNVIVPDPNYQPSTFAGGISNNADDDGSLQPTTSSHFNRNTDRSTSRPPRAPTSPVNRVMETDPLMGQGTSSGAPQRSAIPNPFGGAPALSRSTITNGNRGPSYGDRGERVQDVGDTTSDSEITSEGSYSDEDPEQKEIKRQRRKDKLKKKQERELRSREKHTKSKQQPPSKIETRFNTYKKKSESSATDTSNTPPVDTVNVALPTPVVESSSTTAAPSIPVSTRPEVVVPPENPAPLREVGNFYSKSNHDEDRRNVQLPFTPADTHKPIKVAPKEPVRNPLLKERPSANGFINRRLPSHPAPPPVNQSQPANQPMQTAVY
notes: numbers count on the longer isoform B0379.3a.1 (O62011); also called the longest MUT-16 construct; source: E. coli BL21(DE3) derivative, purified
Regarding B1, the binding result in data set [1] was “binds”.

B2: GST-tagged MUT-16^584–724 (domain or fragment, Caenorhabditis elegans, UniProt O62011 584-724, looked up)
chain: KKKSESSATDTSNTPPVDTVNVALPTPVVESSSTTAAPSIPVSTRPEVVVPPENPAPLREVGNFYSKSNHDEDRRNVQLPFTPADTHKPIKVAPKEPVRNPLLKERPSANGFINRRLPSHPAPPPVNQSQPANQPMQTAVY
notes: numbers count on the longer isoform B0379.3a.1 (O62011); source: E. coli BL21(DE3) derivative, purified
As for B2, in data set [1], the binding result was “binds”.

B3: MUT-16^584–724 (domain or fragment, Caenorhabditis elegans, UniProt O62011 584-724, looked up)
chain: B2 chain
notes: numbers count on the longer isoform B0379.3a.1 (O62011); an untagged form was purified for CD; source: E. coli BL21(DE3) derivative; co-expressed with MBP-tagged MUT-8 constructs, in lysate; co-expressed with MUT-8^NTD and purified as complex; purified
As a reminder, the Kd is the concentration at which binding is half-saturated. In data set [2], B3 showed a Kd of about 13 µM.

On to GUUGAUUGAAGAGUUC (ssRNA) [16-mer ssRNA], for which the Kd in data set [3] was determined as 1.86 µM; in data set [4], 11.2 µM; in data set [5], 2.33 µM; in data set [6] it was 18.7 µM.
